According to paper PMC5780496:

Target: HACE1 (UniProt Q8IYU2)
Assay: co-IP of differently tagged HACE1
Conditions: reference: HACE1 WT with PAK1(K141A); sites S385

Chain of HACE1 (Q8IYU2 whole entry, stated change not applied): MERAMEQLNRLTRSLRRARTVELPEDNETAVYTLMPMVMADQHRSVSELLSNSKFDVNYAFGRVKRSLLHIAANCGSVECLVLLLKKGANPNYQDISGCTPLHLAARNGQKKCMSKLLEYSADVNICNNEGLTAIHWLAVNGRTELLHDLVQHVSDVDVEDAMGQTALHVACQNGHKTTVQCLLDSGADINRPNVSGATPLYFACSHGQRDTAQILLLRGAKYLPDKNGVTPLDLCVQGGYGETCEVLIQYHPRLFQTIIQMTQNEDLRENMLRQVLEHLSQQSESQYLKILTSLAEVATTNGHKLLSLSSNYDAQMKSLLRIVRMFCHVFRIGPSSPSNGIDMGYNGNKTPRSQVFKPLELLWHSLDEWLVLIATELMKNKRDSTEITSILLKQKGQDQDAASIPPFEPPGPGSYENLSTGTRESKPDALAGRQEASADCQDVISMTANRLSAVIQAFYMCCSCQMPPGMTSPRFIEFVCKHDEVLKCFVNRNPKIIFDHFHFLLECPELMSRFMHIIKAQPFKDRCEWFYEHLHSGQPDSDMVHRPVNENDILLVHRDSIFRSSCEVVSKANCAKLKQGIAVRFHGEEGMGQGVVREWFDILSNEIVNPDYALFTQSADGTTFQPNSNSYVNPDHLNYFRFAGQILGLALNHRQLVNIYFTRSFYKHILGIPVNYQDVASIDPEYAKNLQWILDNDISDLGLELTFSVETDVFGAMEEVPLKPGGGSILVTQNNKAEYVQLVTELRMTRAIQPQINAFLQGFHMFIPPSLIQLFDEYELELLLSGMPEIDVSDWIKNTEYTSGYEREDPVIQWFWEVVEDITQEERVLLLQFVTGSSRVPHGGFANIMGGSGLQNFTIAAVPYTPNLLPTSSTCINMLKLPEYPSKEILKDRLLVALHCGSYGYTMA

- binding against the reference: weaker
Substance: HACE1 (from UniProt Q8IYU2) HACE1 S385A with PAK1(K141A)
